# Results from patent US20200016207A1, “[…] c-MPL PROVIDES LIGAND-DEPENDENT CO-STIMULATION AND CYTOKINE SIGNALS TO TCR-ENGINEERED T CELLS” (Baylor College of Medicine, priority 2017, published 2020).
# Assays:
# Type in all cases: cell-based, human
# c-MPL+ T cells = test: Expansion of polyclonal c-MPL+ T cells in TPO; details: cell number from 3×10^6 cells, TPO 50 ng/ml, mean±SD, n=4
# Procedure: (§1) […] Transient retroviral supernatant was prepared by transfection of 293T cells and activated T cells were transduced as described (Arber et al., 2015). The number of retroviral integrants in TCR+c-MPL+ T cells was estimated by quantitative PCR. Whole PBMC's were isolated from fresh buffy coats by Lymphoprep (Axis-Shield) density gradient centrifugation. If required, CD8+ T cells were isolated from PBMCs using magnetic beads and columns (Miltenyi Biotec). […]
# (§2) Cells were stained ith antibodies and analyzed by flow cytometry. […] Cell viability was assessed by 7-AAD staining. T cells and tumor cell populations from co-culture assays were quantified by adding CountBright Beads (Invitrogen) to the analysis. T cell memory marker expression on CD8+ T cells re-covered from co-cultures was analyzed by staining cells with FITC-, PE-, ECD-, PerCP-, APC-, APC-AF750, or V450-conjugated Abs against CD45RO, CD45RA, CD62L, CCR7, CD110, mCβ, CD19, and 7AAD. […] To assess cell proliferation, cells were labeled with Carboxyfluorescein succinimidyl ester (CFSE, ThermoFisher) and analyzed after 7 days of culture. […]
# NT T cells = test: Expansion of non-transduced (NT) T cells in TPO; details: cell number from 3×10^6 cells, TPO 50 ng/ml, mean±SD, n=4
# Procedure: as §1, §2
# [1] = system: c-MPL downstream signaling in c-MPL+ T cells; test: Phosflow for pSTAT5, c-MPL downstream signaling; details: rhTPO 5 and 50 ng/ml; EP 0.1 μg/ml; 1 or 24 hours
# Procedure: (§3) Cells were stained ith antibodies and analyzed by flow cytometry. Cells were stained with FITC-, phycoerythrin- (PE-), peridinin chlorophyll protein-(PerCP-), or allophycocyanin-conjugated (APC-conjugated) antibodies (Abs) against CD3, CD4, CD8, CD110 (c-MPL), murine TCR constant region (mCβ, ebioscience), CD19, or CD138. Cell viability was assessed by 7-AAD staining. T cells and tumor cell populations from co-culture assays were quantified by adding CountBright Beads (Invitrogen) to the analysis. T cell memory marker expression on CD8+ T cells re-covered from co-cultures was analyzed by staining cells with FITC-, PE-, ECD-, PerCP-, APC-, APC-AF750, or V450-conjugated Abs against CD45RO, CD45RA, CD62L, CCR7, CD110, mCβ, CD19, and 7AAD. Intracellular staining for phosphoproteins pSTAT3 and pSTAT5 was performed with PE- and Pacific Blue-conjugated Abs and Phosflow reagents (BD). To assess cell proliferation, cells were labeled with Carboxyfluorescein succinimidyl ester (CFSE, ThermoFisher) and analyzed after 7 days of culture. All antibodies were purchased from BD or Beckman Coulter unless otherwise indicated, and all staining procedures were performed according to the manufacturer's recommendation. Data acquisition was performed on a BD FACSCalibur using CellQuest software or a Beckman Coulter Gallios flow cytometer using Kaluza software. […]
# TCR+c-MPL+ T cells [2] = test: Antigen-specific expansion with survivin peptide-pulsed aAPCs, TCR+c-MPL+ T cells; details: rhTPO 5, 50, 500 ng/ml, two stimulations
# Procedure: aAPCs (described above) were pulsed with the […] survivin peptide (Genemed Synthesis), irradiated at 100 cGy, and used to stimulate T cells at an E:T ratio of 4:1 with IL-2 (50 U/mL) or rhTPO (5 ng/mL, 50 ng/mL, or 500 ng/mL). At the end of the first stimulation (7 days), cells were collected, counted, phenotyped and re-stimulated with fresh peptide-pulsed aAPCs under the same conditions. Fold expansion was recorded at the end of the second stimulation.
# TCR+ T cells = test: Antigen-specific expansion with survivin peptide-pulsed aAPCs, TCR+ T cells; details: IL-2 50 U/mL; rhTPO up to 500 ng/ml
# Procedure: At the end of the first stimulation (7 days), cells were collected, counted, phenotyped and re-stimulated with fresh peptide-pulsed aAPCs under the same conditions. Fold expansion was recorded at the end of the second stimulation.
# c-MPL+ cells = test: c-MPL ligand-dependent STAT3/STAT5 phosphorylation in TCR+c-MPL+ T cells; details: TPO 50 ng/ml or EP 0.1 μg/ml, 1 or 24 hours; c-MPL- cells did not
# Procedure: Similar results were obtained with the TPO small molecule agonist EP. A dose-titration experiment was used to determine the optimal concentration of EP to support c-MPL+ T cell expansion (FIG. 2C). EP was previously shown to inhibit leukemia cell proliferation at higher concentrations (1-10 μg/ml) by reduction of intracellular iron, a c-MPL independent effect (Roth et al., 2012). NT or c-MPL+ T cells were re-activated on OKT3/CD28-coated plates in the presence of different EP concentrations and expansion of viable T cells was determined after 7 days. […] Next, it was evaluated whether rhTPO enhanced the anti-tumor function of TCR+c-MPL+ T cells using two different HLA-A*0201+survivin+hematologic malignancies as targets (U266 multiple myeloma, BV173 leukemia) (FIGS. 2E-2F). […]
# Cells were stained ith antibodies and analyzed by flow cytometry. […] Cell viability was assessed by 7-AAD staining. T cells and tumor cell populations from co-culture assays were quantified by adding CountBright Beads (Invitrogen) to the analysis. T cell memory marker expression on CD8+ T cells re-covered from co-cultures was analyzed by staining cells with FITC-, PE-, ECD-, PerCP-, APC-, APC-AF750, or V450-conjugated Abs against CD45RO, CD45RA, CD62L, CCR7, CD110, mCβ, CD19, and 7AAD. […]
# U266 myeloma cells = test: Co-culture of TCR+c-MPL+ T cells with U266 myeloma cells; details: rhTPO 50 ng/ml, IL2 25 U/ml, n=3
# Procedure: as §3
# BV173 leukemia cells [3] = test: Co-culture of TCR+c-MPL+ T cells with BV173 leukemia cells; details: day 5, E:T 1:3; rhTPO 50 ng/ml, IL2 25 U/ml; noCK 16.7±8.1×10^4
# Procedure: as §3
# BV173 leukemia cells [4] = test: Serial (sequential) co-culture with BV173 leukemia cells
# Procedure: Cells were stained ith antibodies and analyzed by flow cytometry. Cells were stained with FITC-, phycoerythrin- (PE-), peridinin chlorophyll protein-(PerCP-), or allophycocyanin-conjugated (APC-conjugated) antibodies (Abs) against CD3, CD4, CD8, CD110 (c-MPL), murine TCR constant region (mCβ, ebioscience), CD19, or CD138. Cell viability was assessed by 7-AAD staining. T cells and tumor cell populations from co-culture assays were quantified by adding CountBright Beads (Invitrogen) to the analysis. T cell memory marker expression on CD8+ T cells re-covered from co-cultures was analyzed by staining cells with FITC-, PE-, ECD-, PerCP-, APC-, APC-AF750, or V450-conjugated Abs against CD45RO, CD45RA, CD62L, CCR7, CD110, mCβ, CD19, and 7AAD. Intracellular staining for phosphoproteins pSTAT3 and pSTAT5 was performed with PE- and Pacific Blue-conjugated Abs and Phosflow reagents (BD). To assess cell proliferation, cells were labeled with Carboxyfluorescein succinimidyl ester (CFSE, ThermoFisher) and analyzed after 7 days of culture. All antibodies were purchased from BD or Beckman Coulter unless otherwise indicated, and all staining procedures were performed according to the manufacturer's recommendation. Data acquisition was performed on a BD FACSCalibur using CellQuest software or a Beckman Coulter Gallios flow cytometer using Kaluza software. Data analysis was performed with FlowJo software (Tree Star Inc.).
# BV173 or U266B1 cells and T cells were co-cultured in up to eight replicate wells at various E:T ratios in CTL media with no cytokines, rhTPO (5 ng/mL or 50 ng/mL), or EP (0.1 μg/mL). […] Co-culture supernatants were harvested 24 hours after initial plating or tumor-cell add-back to replicate wells and stored at −80° C. for further analysis.
# [5] = system: immune synapses between TCR+c-MPL+ T cells and BV173 leukemia cells; test: Immunological synapse imaging (confocal microscopy); details: mean±SD
# Procedure: T cells isolated from sequential killing co-cultures and fresh BV173 target cells were mixed at E:T 1:2, incubated for 10 minutes, fixed, permeabilized, stained with the appropriate antibodies, and analyzed on a Leica TCS SP8 laser scanning microscope. T cells were co-cultured with BV173 cells at an E:T ratio of 1:5 in CTL media with no cytokines, rhTPO (50 ng/mL) or EP (0.1 μg/mL). After one killing (no cytokine condition) or three sequential killings (rhTPO and EP conditions), cells were collected and dead cells removed (Dead Cell Removal Kit, Miltenyi) (FIG. 4A). For confocal microscopy, T cells and fresh BV173 target cells were mixed at E:T ratio of 1:2, incubated for ten minutes in a tube and ten minutes on silane-coated glass slides (Electron Microscopy Sciences) at 37° C. Cells were then permeabilized and fixed with Perm/Fix solution (BD) for 15 minutes at room temperature and stained with anti-Pericentrin (rabbit, Abcam) and anti-Perforin Alexa-488 (mouse, BD Biosciences) primary antibodies. Phalloidin 568 (Life Technologies) was used to detect F-actin. Cells were imaged as Z stacks of 0.2 μm thickness to cover their entire volume on a Leica TCS SP8 laser scanning microscope using a 100× objective. Images were acquired with the LASAF software (Leica) and analyzed with Imaris software (Imaris) and Fiji.
# TCR+c-MPL+ T cells [6] = test: RNA-sequencing and GSEA of sequential killer T cells; details: after 3 BV173 challenges, rhTPO 50 ng/mL or EP 0.1 μg/mL
# Excerpt: Total RNA was extracted from T cells of 3 independent donors, purified after sequential co-culture in no cytokine, rhTPO or EP (see above and FIG. 4A) using the RNeasy Mini Kit (Qiagen). T cell purification consisted of either dead cell removal alone (see above) or dead cell removal followed by FACS sorting (FACS Aria, BD, Flow Cytometry Core Laboratory at the Texas Children's Hospital Feigin Center), to achieve a >98% T cell purity and T cell viability of >90%. Total RNA samples were sent to GENEWIZ for library preparation and next generation sequencing, with 30 million reads per sample at a 1×50 base pair configuration.
# RNA-Seq was performed in triplicates from 3 independent donors for all 3 conditions (control, rhTPO and EP; see main text). Fastq files were aligned to the transcriptome using HiSat2 with default parameters (Kim et al., 2015). Following alignment and quality control analysis, one replicate of the control dataset was removed due to poor signal to noise ratio. Transcripts were assembled and FPKM values were generated using cuffquant and cuffnorm from the cufflinks software suite (Trapnell et al., 2010) Active transcripts were defined as transcripts with a normalized FPKM value greater than 1 in at least one sample. […]
# [7] = after three tumor cell challenges
# [8] = baseline after T cell expansion
molecule,measurement,setting,value
"thrombopoietin (protein, recombinant human thrombopoietin, ligand of c-MPL) SPAPPACDLRVLSKLLRDSHVLHSRLSQCPEVHPLPTPVLLPAVDFSLGEWKTQMEETKAQDILGAVTLLLEGVMAARGQLGPTCLSSLLGQLSGQVRLLLGALQSLLGTQLPPQGRTTAHKDPNAIFLSFQHLLRGKVRFLMLVGGSTLCVRRAPPTTAVPSRTSLVLTLNEL",c-MPL+ cells in TPO by day 7,c-MPL+ T cells,7.44±0.99×10^6
same,NT cells in TPO by day 7,NT T cells,0.89±0.61×10^6
same,STAT5 phosphorylation in c-MPL+ T cells,[1],occurred
same,antigen-specific expansion of TCR+c-MPL+ T cells,TCR+c-MPL+ T cells [2],expanded in a TPO-dose dependent manner
same,antigen-specific expansion of TCR+ T cells,TCR+ T cells,not
same,STAT3 and STAT5 phosphorylation in c-MPL+ cells,c-MPL+ cells,phosphorylated
same,residual U266 cells,"U266 myeloma cells; day 5, E:T 1:1, TCR+c-MPL+ T cells, noCK 43.3±1.1×10^5",22.8±11.2×10^5
same,T cell count in U266 co-culture,"U266 myeloma cells; day 5, E:T 1:1, noCK 1.84±0.31×10^5",4.41±5.11×10^5
same,T cell count in BV173 co-culture,BV173 leukemia cells [3],31.5±19.1×10^4
same,T cell expansion in serial co-culture,"BV173 leukemia cells [4]; E:T 1:5, versus no cytokines",significantly enhanced
same,CD45RA+CD45RO+ and central memory cells among persistent T cells,BV173 leukemia cells [4]; serial co-culture,enrichment
same,Th1 cytokine production in sequential co-cultures,BV173 leukemia cells [4]; supernatants 24 hours after tumor cell challenge,sustained
same,"MTOC to synapse distance, co-culture",[5]; [7],1.46±1.58 μm
same,"perforin distance to the synapse (perforin convergence), co-culture",[5]; [7],3.68±1.70 μm
same,"actin accumulation at the synapse, co-culture","[5]; after three tumor cell challenges, rhTPO 50 ng/mL or EP 0.1 μg/mL",52.60±16.32%
same,"MTOC to synapse distance, baseline",[5]; [8],3.96±2.49 μm
same,"actin accumulation at the synapse, baseline",[5]; [8],35.23±16.41%
same,"perforin distance to the synapse (perforin convergence), baseline",[5]; [8],3.53±1.00 μm
same,cell cycle associated genes in T cells from treated co-cultures versus controls,TCR+c-MPL+ T cells [6],downregulated
